This assay addresses ferroportin (human (endogenous in HEK 293)) (UniProt Q9NP59).
Sequence of UniProt Q9NP59 (Q9NP59 whole entry): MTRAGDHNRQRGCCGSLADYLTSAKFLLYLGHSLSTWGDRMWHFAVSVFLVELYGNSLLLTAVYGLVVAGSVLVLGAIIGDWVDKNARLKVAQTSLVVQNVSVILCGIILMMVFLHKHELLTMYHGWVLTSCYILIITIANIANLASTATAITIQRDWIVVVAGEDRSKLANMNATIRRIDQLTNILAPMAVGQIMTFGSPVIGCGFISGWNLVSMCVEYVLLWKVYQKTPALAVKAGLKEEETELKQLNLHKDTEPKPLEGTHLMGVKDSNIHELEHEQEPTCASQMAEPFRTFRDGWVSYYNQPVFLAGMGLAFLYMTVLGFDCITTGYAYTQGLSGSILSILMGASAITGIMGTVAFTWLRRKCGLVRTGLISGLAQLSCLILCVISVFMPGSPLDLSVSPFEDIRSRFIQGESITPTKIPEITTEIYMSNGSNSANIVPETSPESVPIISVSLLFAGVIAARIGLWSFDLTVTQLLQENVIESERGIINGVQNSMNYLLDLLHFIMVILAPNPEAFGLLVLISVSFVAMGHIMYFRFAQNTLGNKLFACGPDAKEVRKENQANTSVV

Substance hepcidin (peptide) came in with a membrane Fpn of HEK 293 cells with 500 nM hepcidin for 5 to 60 minutes (membrane protein isolation, immunoblot), decrease compared to holo-Tf treatment of 70%.
The substance “holo (iron bound)-transferrin (from UniProt P02787 20-698) (natural protein)” showed a membrane Fpn of HEK 293 cells with 0.25 μM holo-Tf for 5 to 60 minutes (membrane protein isolation, immunoblot), decrease compared to 0 minutes of 20%.
